From patent US20110268740A1 come the findings set out here.

Test [1] has as its target M2e consensus peptide (free, soluble) (Influenza A virus (consensus of H1, H2 and H3 subtypes of human Influenza A viruses)). Put plainly: Friguet ELISA, free M2e peptide in solution. (In general: An ELISA detects its analyte on a solid surface through an enzyme-linked reagent.)
The target of test [2] is M2e-short (Influenza A virus (consensus)). Put plainly: ELISA, apparent affinity, purified scFv-msFcγ2c on immobilised M2e-short.
Test [3] deals with scFv-E040-msFcγ2c.

B1: scFv-E040-msFcγ2c (Fc fusion)
chain: DADPAQAAELVMTQSPDSLAVSLGERATINCKSSQSVLYSSNNENYLAWYQQKPGQPPKLLIYWASTRESGVPDRFSGSGSGTDFTLTINSVQAEDVAVYYCQQYFMTPITFGQGTRLEIKGGSSRSSSSGGGGSGGGGEVQLLESGGALVQPGRSLRLSCRTSGLNFGDYPINWVRQAPGKGLEWVGFIKSKSYGVTTEFAASVEGRFTISRDDSRGIAYLQMNSLKTEDTAVYYCTSSSGFLYYFDYWGQGTLVTVSSASTKGPSVTSGQAGRKLEPRVPITQNPCPPLKECPPCAAPDLLGGPSVFIFPPKIKDVLMISLSPMVTCVVVDVSEDDPDVQISWFVNNVEVHTAQTQTHREDYNSTLRVVSALPIQHQDWMSGKEFKCKVNNRALPSPIEKTISKPRGPVRAPQVYVLPPPAEEMTKKEFSLTCMITGFLPAEIAVDWTSNGRTEQNYKNTATVLDSDGSYFMYSKLRVQKSTWERGSLFACSVVHEGLHNHLTTKTISRSLGK
In test [1], B1 came in with a dissociation constant Kd of 0.004 µM. For the same molecule, the EC50 in test [2] was determined as 0.0902 nM. In test [3], SLLTEVETPIRNEWGC (modifications not checked) [M2e-short] came in with a concentration giving a half-maximal response (EC50) of 35.5 µM. In turn, SLLTEVETPIRNEWGCRCNDSSD (modifications not checked) [M2e consensus peptide (free, soluble)] displayed a 50% effective concentration (EC50) in test [3] of 21.3 µM.

A word on the Kd: it is the free concentration of one partner at which half of the binding sites on the other are occupied at equilibrium, for simple one-to-one binding. A higher Kd goes with lower affinity. The EC50 is the concentration needed to bring the measured effect to its halfway point.
